Assay results as given in patent US20040014187A1, “Bacterial carboxypeptidase cpg2 variants and their use in gene directed enzyme prodrug therapy” (priority 2000, published 2004).
Numbering of substitutions follows the chain as printed. In names and notes the source's numbering stands. Entries after “also recorded” stand apart in the source; their conditions may differ. Like-named read-outs stand apart in the source and are kept apart here.

B1: stCPG2(QTQ): surface tethered CPG2, Q222, T264, Q272 (protein)
chain: ALAQKRDNVLFQAATDEQPAVIKTLEKLVNIETGTGDAEGIAAAGNFLEAELKNLGFTVTRSKSAGLVVGDNIVGKIKGRGGKNLLLMSHMDTVYLKGILAKAPFRVEGDKAYGPGIADDKGGNAVILHTLKLLKEYGVRDYGTITVLFNTDEEKGSFGSRDLIQEEAKLADYVLSFEPTSAGDEKLSLGTSGIAYVQVQITGKASHAGAAPELGVNALVEASDLVLRTMNIDDKAKNLRFTWTIAKAGQVSNIIPASATLNADVRYARNEDFDAAMKTLEERAQQKKLPEADVKVIVTRGRPAFNAGEGGKKLVDKAVAYYKEAGGTLGVEERTGGGTDAAYAALSGKPVIESLGLPGFGYHSDKAEYVDISAIPRRLYMAARLIMDLGAGKDLDDKGCPAEQRASPLTSIISAVVGILLVVVLGVVFGILIKRRQQKIRKYT
B2: stCPG2(QSQ): surface tethered CPG2, Q222, S264, Q272 (protein)
chain: B1 chain with T242S
B3: stCPG2(QAQ): surface tethered CPG2, Q222, A264, Q272 (protein)
chain: B1 chain with T242A
B4: CPG2* (cytosolic carboxypeptidase G2 from Pseudomonas strain RS16) (enzyme)
chain: ALAQKRDNVLFQAATDEQPAVIKTLEKLVNIETGTGDAEGIAAAGNFLEAELKNLGFTVTRSKSAGLVVGDNIVGKIKGRGGKNLLLMSHMDTVYLKGILAKAPFRVEGDKAYGPGIADDKGGNAVILHTLKLLKEYGVRDYGTITVLFNTDEEKGSFGSRDLIQEEAKLADYVLSFEPTSAGDEKLSLGTSGIAYVQVNITGKASHAGAAPELGVNALVEASDLVLRTMNIDDKAKNLRFNWTIAKAGNVSNIIPASATLNADVRYARNEDFDAAMKTLEERAQQKKLPEADVKVIVTRGRPAFNAGEGGKKLVDKAVAYYKEAGGTLGVEERTGGGTDAAYAALSGKPVIESLGLPGFGYHSDKAEYVDISAIPRRLYMAARLIMDLGAGK
notes: Homodimer; also called COS/CPG2*
B5: CPG2*(QSQ) (enzyme)
chain: B4 chain with N200Q, N242S, N250Q
notes: also called COS/CPG2* (QSQ)
B6: CPG2*(N272): cytosolic CPG2* with N to L substitution at position 272 (protein)
chain: B4 chain with N250L
B7: CPG2*(N264L): cytosolic CPG2* with N to L substitution at position 264 (protein)
chain: B4 chain with N242L
B8: COS/stCPG2 (Q, NWV, Q): CPG2 with T266 altered to V266 in the context of Q222 and Q272 (protein, UniProt P06621 23-415, looked up, variant N222Q T266V N272Q)
Carboxypeptidase G2: B4 chain with N200Q, T244V, N250Q
modifications: surface tethered
notes: CPG2 with T266 altered to V266 in the context of Q222 and Q272
B9: CPG2*(Q)3: cytosolic CPG2* bearing three asparagine to glutamine mutations (N222, N264, N272) (protein)
chain: B4 chain with N200Q, N242Q, N250Q
B10: CPG2*(N222L) (enzyme)
chain: B4 chain with N200L
notes: Cytosolic form expressed in COS cells
B11: CPG2*(QTQ): cytosolic CPG2*(Q)3 with the glutamine at position 264 substituted with threonine (protein)
chain: B4 chain with N200Q, N242T, N250Q
B12: CPG2*(QAQ): cytosolic CPG2*(Q)3 with the glutamine at position 264 substituted with alanine (protein)
chain: B4 chain with N200Q, N242A, N250Q

Legend:
[1] = CPG2 dimer stability by non-reducing SDS-polyacrylamide gel electrophoresis of COS cell extracts; settings: sample not heated
From the text: To test this, CPG2* was transiently expressed in COS cells and the stability of the dimers determined by non-reducing SDS-polyacrylamide gels.

[2] = Enzyme kinetic studies of CPG2-derived enzymes in detergent soluble cell extracts, MTX as substrate; type: biochemical; settings: for Catalytic activity (%): specific activity of COS/CPG2* (50 ng CPG2*) assigned as 100%; for catalytic activity compared to CPG2*(Q)3: increase relative to CPG2*(Q)3; for increase in Km (decrease in apparent affinity for MTX) compared to CPG2*(Q)3: relative to CPG2*(Q)3
From the text: Detergent soluble cell extracts, and enzyme kinetic analyses have been described previously (Marais et al (1996) Cancer Res. 56, 4735-4742; Marais et al (1997) Nature Biotech. 15, 1373-1377).

[3] = previous study, cited from earlier work
[4] = molecular target: the molecule itself; assay: non-reducing SDS-PAGE of COS cell extracts (homodimer)
From the text: We first determined why the asparagine to glutamine mutations that blocked glycosylation reduced CPG2s enzyme activity. […] We next tested each position independently.

[5] = CPG2 enzyme activity in detergent soluble extracts of stably expressing clones, MTX as substrate; type: biochemical; settings: for CPG2 activity (U/mg): U/mg detergent soluble protein, clone as in label
From the text: All mammalian cell lines were maintained in Dulbecco's Modified Eagle's Medium supplemented with 10% foetal calf serum (DMEM/FCS). For this study, the human colorectal carcinoma cell line WiDr (Noguchi et al (1979) In Vitro. 15, 401-408, and the human ovarian carcinoma cell lines SK-OV-3 (Hill et al. (1987) 39, 219-225) and A2780 (Louie et al. (1985) Cancer Res. 45, 2110-2115) were separately transfected with the plasmid pMCEFstcpg2(Q)3 (Marais et al (1997) Nature Biotech. 15, 1373-1377) and G418-resistant colonies were selected by limiting dilution. Detergent soluble extracts were incubated with methotrexate, a good carboxypeptidase G2 substrate. Rate of change of absorbance at 320 nm was measured to identify those colonies able to degrade MTX and therefore likely to express stCPG2(Q)3. Expression of stCPG2(Q)3 was confirmed by immunoblotting these detergent soluble extracts using a rabbit polyclonal serum specific for CPG2 (Marais et al (1996) Cancer Res. 56, 4735-4742; Marais et al (1997) Nature Biotech. 15, 1373-1377). Cell lines constitutively expressing β-galactosidase or CPG2* have been described (Marais et al (1996) Cancer Res. 56, 4735-4742; Marais et al (1997) Nature Biotech. 15, 1373-1377).
In order to conduct these studies, we engineered WiDr (human colorectal adenocarcinoma), SK-OV-3 and A2780 (both human ovarian tumour lines) cells for stable expression of stCPG2(Q)3. The presence of stCPG2(Q)3 was verified by immunoprotein blotting (data not shown) and the levels of enzyme activity in these clones were determined using MTX as substrate (Table 2). For each line two or three clones were examined. The SK-OV-3 clones expressed the lowest levels of CPG2 activity (0.016 and 0.023 U/mg protein) followed by the A2780 clones (0.06 and 0.067 U/mg), with WiDr clones expressing the highest level of CPG2 activity (0.177 and 0.226 U/mg) (Table 2).

[6] = substrate MTX, detergent soluble cell extract, read-out: Km (μM MTX)

| Molecule | dimer stability [1] | Catalytic activity (%) [2] | Km [2, 6] | other results |
| --- | --- | --- | --- | --- |
| B1 | did nor form stable dimers | 29% | 45 µM |  |
| B2 | weak dimers | 40% | 51 µM |  |
| B3 | did nor form stable dimers | 38% | 69 µM |  |
| B4 |  | 100% | 7.2 µM | CPG2 enzyme activity ([3]; A2780 clone expressing CPG2*): 0.964 U/mg; CPG2 enzyme activity ([3]; SK-OV-3 clone expressing CPG2*): 1.013 U/mg; CPG2 enzyme activity ([3]; WiDr clone expressing CPG2*): 0.787 U/mg; binding result [4]: binds; enzyme activity of CPG2* clone relative to stCPG2(Q)3 clones ([5]; A2780): ~15 times; CPG2 activity (U/mg) ([5]; listed as S2.34 CPG2*): 0.023 U/mg; CPG2 activity (U/mg) ([5]; listed as S2.4 CPG2*): 0.014 U/mg |
| B5 | improved; also recorded: restored weak dimer stability | 58% | 58 µM | binding result [4]: binds; catalytic activity compared to CPG2*(Q)3 [2]: almost twice as active; increase in Km (decrease in apparent affinity for MTX) compared to CPG2*(Q)3 [2]: ~6 fold |
| B6 | formed stable dimers |  |  |  |
| B7 | migrated as a monomer |  |  |  |
| B8 |  | 55% | 90 µM | Km ([2]; unit μm [sic], read-out: Km): 90 µM |
| B9 | unstable |  |  |  |
| B10 | formed stable dimers |  |  | binding result [4]: binds |
| B11 | did not restore dimer stability; also recorded: not improved | 78% | 125 µM | catalytic activity compared to CPG2*(Q)3 [2]: ~2.5 fold; increase in Km (decrease in apparent affinity for MTX) compared to CPG2*(Q)3 [2]: ~12 fold |
| B12 | did not restore dimer stability; also recorded: not improved | essentially inactive |  | Catalytic activity (%) ([2]; listed as COS/CPG2* (QAQ)): Very low |
